Laboratory results reported in PMC3652601, “Structure of a dimeric crenarchaeal Cas6 enzyme with an atypical active site for CRISPR RNA processing” (Biochemical Journal, 2013).
Where a chain is given by its changes, count along the chain named. Names and notes keep the numbering of the source.

B1: selenomethionine-labelled methylated SsoCas6 (enzyme, Sulfolobus solfataricus)
chain: PLIFKIGYNVIPLQDVILPTPSSKVLKYLIQSGKLLPSLNNLITSRDKYKPIFISHLGLNQRRIFQTNGNLKTISRGSKLSSTIAFSTQVNVLPELDEGVFETIYGKFHITIESVEIVEVEKLKEEVEKHMNDNIRVRFISPTLLSSKVLLPPSLSERYKRVNAGYSTLPSVGLIVAYAYNVYCNLIGKKEVEVRAFKFGVISNALSRIIGYDLHPVTIVIGEDSKGNLRKARGVMGWIEFDIPDEKLKRRALRYLLASSYLGIGRSRGIGFGEIKLEFIKREENH
modifications: (L)-selenomethionine derivative; surface lysine residues reductively methylated
notes: Cas6 paralogue Sso1437 of Sulfolobus solfataricus; residues 43-50 and 90-93 disordered in the crystal; Same construct as m1, labelled with selenomethionine and methylated for crystallography; also called (L)-selenomethionine derivative of SsoCas6; not shown: His6, N-terminal, cleaved
B2: Sulfolobus solfataricus Cas6 (Sso1437), wild type (enzyme)
chain: B1 chain
notes: Cas6 paralogue Sso1437 of Sulfolobus solfataricus, gene amplified by PCR from genomic DNA; expected molecular mass of the monomer 33 kDa; Cloned into pET151-TOPO; also called SsoCas6; wild-type (WT) enzyme; source: E. coli C43(DE3), purified (Ni-NTA, TEV cleavage, Superdex 75 gel filtration); not shown: His6, N-terminal, cleaved
B3: SsoCas6 K28H variant (enzyme, Sulfolobus solfataricus)
chain: B1 chain with K27H
notes: Cas6 paralogue Sso1437 of Sulfolobus solfataricus with K28H; Used in the calibrated gel filtration in place of the wild type; source: E. coli, purified according to the same protocol as the wild type; not shown: His6, N-terminal, cleaved

Experiments:
[1] = biological target: the molecule itself; experiment: crystal structure; selenomethionine-labelled methylated protein; 0.05 M bicine pH 9.1, 28% PEG 3350; SAD, 2.8 Å; four monomers in the asymmetric unit; interface analysed with PDBePISA
[2] = biological target: the molecule itself; experiment: SEC; calibrated gel filtration, HiLoad 26/600 Superdex 200, 20 mM Tris/HCl pH 7.5, 1 M NaCl; calibrated with Bio-Rad standards

Protein	binding result [1]	stoichiometry N [2]
B1	binds	–
B2	–	2
B3	–	2
